Measured values: US10344077

Legend:
Centromere B [1] = target: T1, Centromere B (UniProt P07199); experiment: AtheNA, Ab 25 ug/ml
T1 sequence (looked up): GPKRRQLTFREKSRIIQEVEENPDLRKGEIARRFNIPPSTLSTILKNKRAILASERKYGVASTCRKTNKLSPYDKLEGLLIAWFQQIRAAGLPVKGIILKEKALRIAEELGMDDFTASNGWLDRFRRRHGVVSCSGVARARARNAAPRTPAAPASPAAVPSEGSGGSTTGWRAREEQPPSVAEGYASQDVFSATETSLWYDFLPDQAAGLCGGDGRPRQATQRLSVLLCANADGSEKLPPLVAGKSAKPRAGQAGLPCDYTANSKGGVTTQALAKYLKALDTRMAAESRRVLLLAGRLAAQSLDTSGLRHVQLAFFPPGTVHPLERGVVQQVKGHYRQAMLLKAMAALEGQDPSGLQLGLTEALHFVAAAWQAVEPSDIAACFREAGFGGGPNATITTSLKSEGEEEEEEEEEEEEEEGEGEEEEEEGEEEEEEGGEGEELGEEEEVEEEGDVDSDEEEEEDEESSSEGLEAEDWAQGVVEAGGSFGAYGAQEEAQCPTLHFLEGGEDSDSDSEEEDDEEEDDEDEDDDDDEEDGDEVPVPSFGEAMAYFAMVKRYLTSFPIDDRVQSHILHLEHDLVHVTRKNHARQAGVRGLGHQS

Histones [2] = experiment: AtheNA, Ab 25 ug/ml
Jo-1 [3] = target: T2, Jo-1 (UniProt P12081); experiment: AtheNA, Ab 25 ug/ml
T2 sequence (looked up): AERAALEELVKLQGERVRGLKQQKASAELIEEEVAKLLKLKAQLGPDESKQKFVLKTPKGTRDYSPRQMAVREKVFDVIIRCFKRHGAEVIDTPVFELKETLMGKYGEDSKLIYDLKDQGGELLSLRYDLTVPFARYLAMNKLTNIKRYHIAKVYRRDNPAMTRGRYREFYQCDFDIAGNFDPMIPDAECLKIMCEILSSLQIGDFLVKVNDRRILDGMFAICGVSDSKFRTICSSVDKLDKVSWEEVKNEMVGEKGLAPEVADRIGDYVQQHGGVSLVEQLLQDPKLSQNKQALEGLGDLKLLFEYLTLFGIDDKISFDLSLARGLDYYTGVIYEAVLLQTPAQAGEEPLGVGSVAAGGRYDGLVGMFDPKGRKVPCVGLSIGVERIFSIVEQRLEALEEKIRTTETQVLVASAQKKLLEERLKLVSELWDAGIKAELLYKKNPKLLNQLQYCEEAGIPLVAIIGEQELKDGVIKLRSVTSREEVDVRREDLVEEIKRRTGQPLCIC

RNP (ribonucleoprotein) [4] = experiment: AtheNA, Ab 25 ug/ml
SSA [5] = experiment: AtheNA, Ab 25 ug/ml
SSB [6] = target: SSB (UniProt P05455); experiment: AtheNA, Ab 25 ug/ml
Chain of SSB (P05455 whole entry): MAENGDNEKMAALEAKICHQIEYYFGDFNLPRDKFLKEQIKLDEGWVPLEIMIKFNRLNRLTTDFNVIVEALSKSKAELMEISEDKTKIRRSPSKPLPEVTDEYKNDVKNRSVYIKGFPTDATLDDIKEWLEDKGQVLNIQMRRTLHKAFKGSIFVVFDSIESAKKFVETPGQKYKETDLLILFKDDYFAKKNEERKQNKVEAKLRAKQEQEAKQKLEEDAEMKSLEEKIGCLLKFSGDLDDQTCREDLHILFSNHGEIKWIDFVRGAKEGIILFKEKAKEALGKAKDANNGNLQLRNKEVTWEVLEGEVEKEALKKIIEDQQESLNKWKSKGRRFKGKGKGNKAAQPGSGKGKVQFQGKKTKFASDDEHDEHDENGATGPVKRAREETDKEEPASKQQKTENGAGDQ

Scl-70 [7] = target: Scl-70 (UniProt P11387); experiment: AtheNA, Ab 25 ug/ml
Chain of Scl-70 (P11387 2-765 limits assumed): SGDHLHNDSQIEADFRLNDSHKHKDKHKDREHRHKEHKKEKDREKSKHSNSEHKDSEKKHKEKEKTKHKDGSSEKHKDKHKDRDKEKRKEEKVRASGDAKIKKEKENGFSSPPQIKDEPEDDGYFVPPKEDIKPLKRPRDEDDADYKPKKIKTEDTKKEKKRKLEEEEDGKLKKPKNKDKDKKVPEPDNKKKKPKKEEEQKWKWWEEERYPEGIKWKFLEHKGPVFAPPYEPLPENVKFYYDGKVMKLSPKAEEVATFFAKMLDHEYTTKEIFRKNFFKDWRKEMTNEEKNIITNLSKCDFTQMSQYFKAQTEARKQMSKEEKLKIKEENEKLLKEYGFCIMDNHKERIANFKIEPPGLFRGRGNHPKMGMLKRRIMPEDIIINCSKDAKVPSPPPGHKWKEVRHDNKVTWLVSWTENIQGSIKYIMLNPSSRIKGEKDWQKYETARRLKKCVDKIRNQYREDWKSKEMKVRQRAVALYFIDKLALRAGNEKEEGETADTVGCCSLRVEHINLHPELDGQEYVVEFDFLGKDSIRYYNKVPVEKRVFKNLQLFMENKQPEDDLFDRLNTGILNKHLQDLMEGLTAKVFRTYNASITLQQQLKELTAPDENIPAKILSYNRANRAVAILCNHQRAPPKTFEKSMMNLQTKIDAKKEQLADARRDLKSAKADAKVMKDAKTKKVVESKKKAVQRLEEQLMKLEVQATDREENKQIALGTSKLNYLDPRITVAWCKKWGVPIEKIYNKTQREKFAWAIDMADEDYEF

Sm (Smith antigen) [8] = experiment: AtheNA, Ab 25 ug/ml
Centromere B [9] = target: T1, Centromere B; experiment: AtheNA, Ab 12.5 ug/ml
Histones [10] = experiment: AtheNA, Ab 12.5 ug/ml
Jo-1 [11] = target: T2, Jo-1; experiment: AtheNA, Ab 12.5 ug/ml
RNP (ribonucleoprotein) [12] = experiment: AtheNA, Ab 12.5 ug/ml
SSA [13] = experiment: AtheNA, Ab 12.5 ug/ml
SSB [14] = target: SSB (UniProt P05455); experiment: AtheNA, Ab 12.5 ug/ml
Scl-70 [15] = target: Scl-70 (UniProt P11387); experiment: AtheNA, Ab 12.5 ug/ml
Sm (Smith antigen) [16] = experiment: AtheNA, Ab 12.5 ug/ml
Centromere B [17] = target: T1, Centromere B; experiment: AtheNA, Ab 6.25 ug/ml
Histones [18] = experiment: AtheNA, Ab 6.25 ug/ml
Jo-1 [19] = target: T2, Jo-1; experiment: AtheNA, Ab 6.25 ug/ml
RNP (ribonucleoprotein) [20] = experiment: AtheNA, Ab 6.25 ug/ml
SSA [21] = experiment: AtheNA, Ab 6.25 ug/ml
SSB [22] = target: SSB (UniProt P05455); experiment: AtheNA, Ab 6.25 ug/ml
Scl-70 [23] = target: Scl-70 (UniProt P11387); experiment: AtheNA, Ab 6.25 ug/ml
Sm (Smith antigen) [24] = experiment: AtheNA, Ab 6.25 ug/ml
Centromere B [25] = target: T1, Centromere B; experiment: AtheNA, Ab 25 ug/ml; remark: listed apart in the source
Histones [26] = experiment: AtheNA, Ab 25 ug/ml; remark: listed apart in the source
Jo-1 [27] = target: T2, Jo-1; experiment: AtheNA, Ab 25 ug/ml; remark: listed apart in the source
RNP (ribonucleoprotein) [28] = experiment: AtheNA, Ab 25 ug/ml; remark: listed apart in the source
SSA [29] = experiment: AtheNA, Ab 25 ug/ml; remark: listed apart in the source
SSB [30] = target: SSB (UniProt P05455); experiment: AtheNA, Ab 25 ug/ml; remark: listed apart in the source
Scl-70 [31] = target: Scl-70 (UniProt P11387); experiment: AtheNA, Ab 25 ug/ml; remark: listed apart in the source
Sm (Smith antigen) [32] = experiment: AtheNA, Ab 25 ug/ml; remark: listed apart in the source
Jo-1 [33] = target: T2, Jo-1; experiment: AtheNA, Ab 50 ug/ml
SSB [34] = target: SSB (UniProt P05455); experiment: AtheNA, Ab 50 ug/ml
Jo-1 [35] = target: T2, Jo-1; experiment: AtheNA, Ab 50 ug/ml; remark: listed apart in the source
SSB [36] = target: SSB (UniProt P05455); experiment: AtheNA, Ab 50 ug/ml; remark: listed apart in the source
Centromere B [37] = target: T1, Centromere B; experiment: AtheNA, Ab 50 ug/ml
Histones [38] = experiment: AtheNA, Ab 50 ug/ml
RNP (ribonucleoprotein) [39] = experiment: AtheNA, Ab 50 ug/ml
SSA [40] = experiment: AtheNA, Ab 50 ug/ml
Scl-70 [41] = target: Scl-70 (UniProt P11387); experiment: AtheNA, Ab 50 ug/ml
Sm (Smith antigen) [42] = experiment: AtheNA, Ab 50 ug/ml

Substance: CH235UA/293i (antibody)
- Athena reading (relative luminescence units) (Centromere B [1]): 3
- Athena reading (relative luminescence units) (Histones [2]): 3
- Athena reading (relative luminescence units) (Jo-1 [3]): 5
- Athena reading (relative luminescence units) (RNP (ribonucleoprotein) [4]): 4
- Athena reading (relative luminescence units) (SSA [5]): 9
- Athena reading (relative luminescence units) (SSB [6]): 3
- Athena reading (relative luminescence units) (Scl-70 [7]): 3
- Athena reading (relative luminescence units) (Sm (Smith antigen) [8]): 6
- Athena reading (relative luminescence units) (Centromere B [9]): 3
- Athena reading (relative luminescence units) (Histones [10]): 4
- Athena reading (relative luminescence units) (Jo-1 [11]): 5
- Athena reading (relative luminescence units) (RNP (ribonucleoprotein) [12]): 3
- Athena reading (relative luminescence units) (SSA [13]): 9
- Athena reading (relative luminescence units) (SSB [14]): 4
- Athena reading (relative luminescence units) (Scl-70 [15]): 3
- Athena reading (relative luminescence units) (Sm (Smith antigen) [16]): 6
- Athena reading (relative luminescence units) (Centromere B [17]): 2
- Athena reading (relative luminescence units) (Histones [18]): 2
- Athena reading (relative luminescence units) (Jo-1 [19]): 3
- Athena reading (relative luminescence units) (RNP (ribonucleoprotein) [20]): 2
- Athena reading (relative luminescence units) (SSA [21]): 10
- Athena reading (relative luminescence units) (SSB [22]): 5
- Athena reading (relative luminescence units) (Scl-70 [23]): 3
- Athena reading (relative luminescence units) (Sm (Smith antigen) [24]): 5

Substance: 4E10 IgG1 (antibody)
- Athena reading (relative luminescence units) (Centromere B [25]): 3
- Athena reading (relative luminescence units) (Histones [26]): 10
- Athena reading (relative luminescence units) (Jo-1 [27]): 160
- Athena reading (relative luminescence units) (RNP (ribonucleoprotein) [28]): 3
- Athena reading (relative luminescence units) (SSA [29]): 33
- Athena reading (relative luminescence units) (SSB [30]): 227
- Athena reading (relative luminescence units) (Scl-70 [31]): 1
- Athena reading (relative luminescence units) (Sm (Smith antigen) [32]): 2
- Athena reading (relative luminescence units) (Jo-1 [33]): 190
- Athena reading (relative luminescence units) (SSB [34]): 263
- Athena reading (relative luminescence units) (Centromere B [1]): 9
- Athena reading (relative luminescence units) (Histones [2]): 24
- Athena reading (relative luminescence units) (Jo-1 [3]): 206
- Athena reading (relative luminescence units) (RNP (ribonucleoprotein) [4]): 20
- Athena reading (relative luminescence units) (SSA [5]): 81
- Athena reading (relative luminescence units) (SSB [6]): 189
- Athena reading (relative luminescence units) (Scl-70 [7]): 4
- Athena reading (relative luminescence units) (Sm (Smith antigen) [8]): 46
- Athena reading (relative luminescence units) (Jo-1 [35]): 227
- Athena reading (relative luminescence units) (SSB [36]): 207
- Athena reading (relative luminescence units) (Centromere B [9]): 1
- Athena reading (relative luminescence units) (Histones [10]): 7
- Athena reading (relative luminescence units) (Jo-1 [11]): 131
- Athena reading (relative luminescence units) (RNP (ribonucleoprotein) [12]): 3
- Athena reading (relative luminescence units) (SSA [13]): 21
- Athena reading (relative luminescence units) (SSB [14]): 199
- Athena reading (relative luminescence units) (Scl-70 [15]): 0
- Athena reading (relative luminescence units) (Sm (Smith antigen) [16]): 3
- Athena reading (relative luminescence units) (Centromere B [17]): 2
- Athena reading (relative luminescence units) (Histones [18]): 6
- Athena reading (relative luminescence units) (Jo-1 [19]): 113
- Athena reading (relative luminescence units) (RNP (ribonucleoprotein) [20]): 3
- Athena reading (relative luminescence units) (SSA [21]): 17
- Athena reading (relative luminescence units) (SSB [22]): 178
- Athena reading (relative luminescence units) (Scl-70 [23]): 1
- Athena reading (relative luminescence units) (Sm (Smith antigen) [24]): 3

Substance: DH270IA1 (antibody)
- Athena reading (Centromere B [25]): 5
- Athena reading (Histones [26]): 4
- Athena reading (Jo-1 [27]): 3
- Athena reading (RNP (ribonucleoprotein) [28]): 2
- Athena reading (SSA [29]): 3
- Athena reading (SSB [30]): 6
- Athena reading (Scl-70 [31]): 1
- Athena reading (Sm (Smith antigen) [32]): 5
- Athena reading (Centromere B [37]): 10
- Athena reading (Histones [38]): 9
- Athena reading (Jo-1 [33]): 5
- Athena reading (RNP (ribonucleoprotein) [39]): 2
- Athena reading (SSA [40]): 5
- Athena reading (SSB [34]): 6
- Athena reading (Scl-70 [41]): 4
- Athena reading (Sm (Smith antigen) [42]): 5
- Athena reading (Centromere B [9]): 3
- Athena reading (Histones [10]): 4
- Athena reading (Jo-1 [11]): 6
- Athena reading (RNP (ribonucleoprotein) [12]): 3
- Athena reading (SSA [13]): 3
- Athena reading (SSB [14]): 6
- Athena reading (Scl-70 [15]): 2
- Athena reading (Sm (Smith antigen) [16]): 5
- Athena reading (Centromere B [17]): 2
- Athena reading (Histones [18]): 2
- Athena reading (Jo-1 [19]): 5
- Athena reading (RNP (ribonucleoprotein) [20]): 2
- Athena reading (SSA [21]): 5
- Athena reading (SSB [22]): 1
- Athena reading (Scl-70 [23]): 2
- Athena reading (Sm (Smith antigen) [24]): 3

Substance: synagis (antibody)
- Athena reading (relative luminescence units) (Centromere B [25]): 4
- Athena reading (relative luminescence units) (Histones [26]): 5
- Athena reading (relative luminescence units) (Jo-1 [27]): 2
- Athena reading (relative luminescence units) (RNP (ribonucleoprotein) [28]): 4
- Athena reading (relative luminescence units) (SSA [29]): 3
- Athena reading (relative luminescence units) (SSB [30]): 7
- Athena reading (relative luminescence units) (Scl-70 [31]): 2
- Athena reading (relative luminescence units) (Sm (Smith antigen) [32]): 3
- Athena reading (relative luminescence units) (Centromere B [1]): 2
- Athena reading (relative luminescence units) (Histones [2]): 2
- Athena reading (relative luminescence units) (Jo-1 [3]): 4
- Athena reading (relative luminescence units) (RNP (ribonucleoprotein) [4]): 0
- Athena reading (relative luminescence units) (SSA [5]): 11
- Athena reading (relative luminescence units) (SSB [6]): 4
- Athena reading (relative luminescence units) (Sm (Smith antigen) [8]): 4
- Athena reading (relative luminescence units) (Centromere B [9]): 2
- Athena reading (relative luminescence units) (Histones [10]): 3
- Athena reading (relative luminescence units) (Jo-1 [11]): 6
- Athena reading (relative luminescence units) (RNP (ribonucleoprotein) [12]): 3
- Athena reading (relative luminescence units) (SSA [13]): 2
- Athena reading (relative luminescence units) (SSB [14]): 5
- Athena reading (relative luminescence units) (Scl-70 [15]): 3
- Athena reading (relative luminescence units) (Sm (Smith antigen) [16]): 7
- Athena reading (relative luminescence units) (Centromere B [17]): 2
- Athena reading (relative luminescence units) (Histones [18]): 3
- Athena reading (relative luminescence units) (Jo-1 [19]): 1
- Athena reading (relative luminescence units) (RNP (ribonucleoprotein) [20]): 3
- Athena reading (relative luminescence units) (SSA [21]): 2
- Athena reading (relative luminescence units) (SSB [22]): 5
- Athena reading (relative luminescence units) (Scl-70 [23]): 2
- Athena reading (relative luminescence units) (Sm (Smith antigen) [24]): 2
